The values below are quoted from earlier work in paper PMC11003968, “Identification of small molecules affecting the interaction between human hemoglobin and Staphylococcus aureus IsdB hemophore” (Scientific Reports, 2024).

For data set [1], the target named is IsdB (Staphylococcus aureus) (UniProt A7X146). Kind of data set: SPR.
The target in data set [2] is oxyhemoglobin dimer (Homo sapiens) (UniProt P69905).

oxyhemoglobin dimer, sequence (P69905 2-142): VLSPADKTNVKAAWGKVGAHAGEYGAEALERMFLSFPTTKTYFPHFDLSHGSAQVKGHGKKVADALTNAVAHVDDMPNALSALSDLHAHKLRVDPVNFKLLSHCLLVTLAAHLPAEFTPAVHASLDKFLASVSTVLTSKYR
oxyhemoglobin dimer, sequence (P68871 2-147, further chain): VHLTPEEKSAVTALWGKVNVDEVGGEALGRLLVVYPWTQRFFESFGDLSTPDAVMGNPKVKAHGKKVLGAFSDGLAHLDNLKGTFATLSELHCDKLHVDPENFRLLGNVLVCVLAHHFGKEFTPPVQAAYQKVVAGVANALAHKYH
hemoglobin, sequence (P69905 2-142): as the sequence (P69905 2-142) above
hemoglobin, sequence (P68871 2-147, further chain): as the sequence (P68871 2-147, further chain) above
IsdB (Staphylococcus aureus), sequence (A7X146 41-613): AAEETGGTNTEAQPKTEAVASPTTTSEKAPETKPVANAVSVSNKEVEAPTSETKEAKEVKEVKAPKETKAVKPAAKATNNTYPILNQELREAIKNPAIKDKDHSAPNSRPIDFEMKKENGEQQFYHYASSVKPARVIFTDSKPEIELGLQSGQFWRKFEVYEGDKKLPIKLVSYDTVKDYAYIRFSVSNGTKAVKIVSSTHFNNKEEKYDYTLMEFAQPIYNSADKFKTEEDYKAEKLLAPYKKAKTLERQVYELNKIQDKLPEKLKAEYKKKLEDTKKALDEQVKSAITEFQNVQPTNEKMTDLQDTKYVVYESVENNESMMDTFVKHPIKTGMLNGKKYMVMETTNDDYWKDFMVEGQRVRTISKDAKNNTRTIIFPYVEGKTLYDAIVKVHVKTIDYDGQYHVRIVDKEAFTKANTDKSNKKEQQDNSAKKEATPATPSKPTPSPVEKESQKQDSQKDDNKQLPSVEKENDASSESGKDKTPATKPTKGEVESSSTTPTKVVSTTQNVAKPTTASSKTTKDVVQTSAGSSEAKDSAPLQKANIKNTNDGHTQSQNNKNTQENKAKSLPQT

As to hemoglobin (from UniProt P69905), the dissociation constant Kd in data set [1] was 35 nM. For the substance “oxyhemoglobin dimer (from UniProt P69905)”, the Kd in data set [2] is 250 nM.
